We go through one molecule from article PMC4335687 (Growth factors (Chur, Switzerland), 2014).

The test has as its target EphA2 ligand-binding domain, untagged (UniProt P29317). Nature of the test: SEC.

EphA2 ligand-binding domain, untagged, sequence (P29317 24-206): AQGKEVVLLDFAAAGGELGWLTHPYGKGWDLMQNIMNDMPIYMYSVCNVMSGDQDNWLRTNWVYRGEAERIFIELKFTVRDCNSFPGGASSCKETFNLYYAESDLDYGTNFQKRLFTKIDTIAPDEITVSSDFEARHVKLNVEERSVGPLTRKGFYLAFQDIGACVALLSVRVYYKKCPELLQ

B1: D2 scFv-6xHis (monomeric anti-EphA2 single-chain antibody) (scFv, V domains shown)
VH: EVQLLESGGGLVQPGGSLRLSCAASGFTFSRYWMHWVRQAPGKGLEWVSSISPYDGETNYADSVKGRFTISRDNSKNTLYLQMNSLRAEDTAVYYCARISEWYNWAVDVFDYWGQGTLVTVSS
VL: EIVLTQSPGTLSLSPGERATLSCRASQSVSSSNLAWYQQKPGQAPRLLIYGASSRATGVPDRFSGSGSGTDFTLTISRLEPEDFAVYYCQQSSSYPWTFGQGTKVEIK
On to B1, for which the “stoichiometry N” value is 1.

In general, stoichiometry N refers to the number of molecules, sites or subunits per partner or assembly.
